Results taken from patent US20240092922A1 (EUCURE BEIJING BIOPHARMA, published 2024).

Target: T1, Histidine-tagged human 4-1BB protein (h4-1BB-His) (human, UniProt Q07011 24-186)
T1 construct: not shown: histidine tag
Assay: SPR (Biacore T200), antibody on Protein A chip, h4-1BB-His injected;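 also: dissociation phase followed for 300 s, Kd derived as koff divided by kon from the kinetic fit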

Binder	Kd	koff	kon
5F9-H2K2-IgG4 (antibody, V domains shown, humanized) VH: QVQLKESGPGLVKPSETLSLTCTVSGFSLTTYDISWVRQPPGKGLEWLGVIWTGGGTNYNSSFMSRVTISKDTSKNQVSLKLSSVTAADTAIYYCERVDYWGQGTTVTVSS VL: DVVMTQSPLSLPVTLGQPASISCRSSQSLVHSNGNTYLHWFQQRPGQSPKLLIYKVSNRFSGVPDRFSGSGSGTAFTFKISRVEAEDVGVYYCSQNTHVPWTFGGGTKVEIK	13.4 nM	0.00261 s⁻¹	194000 M⁻¹ s⁻¹
5F9-H2K4-IgG4 (antibody, V domains shown, humanized) VH: QVQLKESGPGLVKPSETLSLTCTVSGFSLTTYDISWVRQPPGKGLEWLGVIWTGGGTNYNSSFMSRVTISKDTSKNQVSLKLSSVTAADTAIYYCERVDYWGQGTTVTVSS VL: DVVMTQSPLSLPVTLGDPASISCRSSQSLVHSNGNTYLHWYLQRPGQSPKLLIYKVSNRFSGVPDRFSGSGSGTAFTFKISRVEAEDVGVYYCSQNTHVPWTFGGGTKLEIK	12.4 nM	0.00269 s⁻¹	216000 M⁻¹ s⁻¹
5F9-H1K4-IgG4 (antibody, V domains shown, humanized) VH: QVQLQESGPGLVKPSETLSLTCTVSGFSLTTYDISWVRQPPGKGLEWIGVIWTGGGTNYNSSFMSRVTISKDTSKNQVSLKLSSVTAADTAVYYCERVDYWGQGTTVTVSS VL: DVVMTQSPLSLPVTLGDPASISCRSSQSLVHSNGNTYLHWYLQRPGQSPKLLIYKVSNRFSGVPDRFSGSGSGTAFTFKISRVEAEDVGVYYCSQNTHVPWTFGGGTKLEIK	9.95 nM	0.00244 s⁻¹	246000 M⁻¹ s⁻¹
5F9-H3K3-IgG4 (antibody, V domains shown, humanized) VH: QVQLKESGPGLVKPSETLSITCTVSGFSLTTYDISWVRQPPGKGLEWLGVIWTGGGTNYNSSFMSRVTISKDNSKNQVSLKLSSVTAADTAIYYCERVDYWGQGTTLTVSS VL: DVVMTQSPLSLPVTLGQPASISCRSSQSLVHSNGNTYLHWYQQRPGQSPKLLIYKVSNRFSGVPDRFSGSGSGTAFTFKISRVEAEDVGVYYCSQNTHVPWTFGGGTKLEIK	10.5 nM	0.0022 s⁻¹	210000 M⁻¹ s⁻¹
5F9-H3K2-IgG4 (antibody, V domains shown, humanized) VH: QVQLKESGPGLVKPSETLSITCTVSGFSLTTYDISWVRQPPGKGLEWLGVIWTGGGTNYNSSFMSRVTISKDNSKNQVSLKLSSVTAADTAIYYCERVDYWGQGTTLTVSS VL: DVVMTQSPLSLPVTLGQPASISCRSSQSLVHSNGNTYLHWFQQRPGQSPKLLIYKVSNRFSGVPDRFSGSGSGTAFTFKISRVEAEDVGVYYCSQNTHVPWTFGGGTKVEIK	13.7 nM	0.00258 s⁻¹	188000 M⁻¹ s⁻¹
5F9-H2K3-IgG4 (antibody, V domains shown, humanized) VH: QVQLKESGPGLVKPSETLSLTCTVSGFSLTTYDISWVRQPPGKGLEWLGVIWTGGGTNYNSSFMSRVTISKDTSKNQVSLKLSSVTAADTAIYYCERVDYWGQGTTVTVSS VL: DVVMTQSPLSLPVTLGQPASISCRSSQSLVHSNGNTYLHWYQQRPGQSPKLLIYKVSNRFSGVPDRFSGSGSGTAFTFKISRVEAEDVGVYYCSQNTHVPWTFGGGTKLEIK	9.81 nM	0.00207 s⁻¹	212000 M⁻¹ s⁻¹
5F9-H1K3-IgG4 (antibody, V domains shown, humanized) VH: QVQLQESGPGLVKPSETLSLTCTVSGFSLTTYDISWVRQPPGKGLEWIGVIWTGGGTNYNSSFMSRVTISKDTSKNQVSLKLSSVTAADTAVYYCERVDYWGQGTTVTVSS VL: DVVMTQSPLSLPVTLGQPASISCRSSQSLVHSNGNTYLHWYQQRPGQSPKLLIYKVSNRFSGVPDRFSGSGSGTAFTFKISRVEAEDVGVYYCSQNTHVPWTFGGGTKLEIK	10.1 nM	0.00208 s⁻¹	206000 M⁻¹ s⁻¹
5F9-H1K1-IgG4 (antibody, V domains shown, humanized) VH: QVQLQESGPGLVKPSETLSLTCTVSGFSLTTYDISWVRQPPGKGLEWIGVIWTGGGTNYNSSFMSRVTISKDTSKNQVSLKLSSVTAADTAVYYCERVDYWGQGTTVTVSS VL: DVVMTQSPLSLPVTLGQPASISCRSSQSLVHSNGNTYLHWFQQRPGQSPRLLIYKVSNRFSGVPDRFSGSGSGTAFTFKISRVEAEDVGVYYCSQNTHVPWTFGGGTKVEIK	11.4 nM	0.00253 s⁻¹	222000 M⁻¹ s⁻¹
5F9-H1K2-IgG4 (antibody, V domains shown, humanized; also called 30-5F9-H1K2-IgG4) VH: QVQLQESGPGLVKPSETLSLTCTVSGFSLTTYDISWVRQPPGKGLEWIGVIWTGGGTNYNSSFMSRVTISKDTSKNQVSLKLSSVTAADTAVYYCERVDYWGQGTTVTVSS VL: DVVMTQSPLSLPVTLGQPASISCRSSQSLVHSNGNTYLHWFQQRPGQSPKLLIYKVSNRFSGVPDRFSGSGSGTAFTFKISRVEAEDVGVYYCSQNTHVPWTFGGGTKVEIK	12 nM	0.00247 s⁻¹	205000 M⁻¹ s⁻¹
5F9-H2K1-IgG4 (antibody, V domains shown, humanized) VH: QVQLKESGPGLVKPSETLSLTCTVSGFSLTTYDISWVRQPPGKGLEWLGVIWTGGGTNYNSSFMSRVTISKDTSKNQVSLKLSSVTAADTAIYYCERVDYWGQGTTVTVSS VL: DVVMTQSPLSLPVTLGQPASISCRSSQSLVHSNGNTYLHWFQQRPGQSPRLLIYKVSNRFSGVPDRFSGSGSGTAFTFKISRVEAEDVGVYYCSQNTHVPWTFGGGTKVEIK	11.2 nM	0.00225 s⁻¹	202000 M⁻¹ s⁻¹
5F9-H3K1-IgG4 (antibody, V domains shown, humanized) VH: QVQLKESGPGLVKPSETLSITCTVSGFSLTTYDISWVRQPPGKGLEWLGVIWTGGGTNYNSSFMSRVTISKDNSKNQVSLKLSSVTAADTAIYYCERVDYWGQGTTLTVSS VL: DVVMTQSPLSLPVTLGQPASISCRSSQSLVHSNGNTYLHWFQQRPGQSPRLLIYKVSNRFSGVPDRFSGSGSGTAFTFKISRVEAEDVGVYYCSQNTHVPWTFGGGTKVEIK	12.2 nM	0.00242 s⁻¹	198000 M⁻¹ s⁻¹
1C4-H2K2-IgG4 (antibody, V domains shown, humanized) VH: QVQMVQSGAEVKKPGASVKLSCKASGFTFSSSYINWLRQAPGQSLEWIGWIFAGTGGTYYNQKFTGRVQITRDTSASTAYMELSSLRSEDTAIYYCARHSPRATLFDFWGQGTTLTVSS VL: EIVLTQSPATLSLSPGERATLSCRASSSVNHMHWYQQKPGQAPRALIYATSNLASGIPARFSGSGSGTSFTLTISSLEPEDFATYYCQQWSSNPYTFGGGTKLEIK	25.1 nM	0.000646 s⁻¹	25800 M⁻¹ s⁻¹
1C4-H4K3-IgG4 (antibody, V domains shown, humanized) VH: QGQMVQSGAEVKKPGASVKLSCKTSGFTFSSSYINWLRQAPGQSLEWIAWIFAGTGGTYYNQKFTGRAQLTVDTSASTAYMELSSLRSEDTAIYYCARHSPRATLFDFWGQGTTLTVSS VL: EIVLTQSPATLSLSPGERATMSCRASSSVNHMHWYQQKPGFSPRAWIYATSNLASGIPARFSGSGSGTSFTLTISSLEPEDFATYYCQQWSSNPYTFGGGTKLEIK	16.9 nM	0.000556 s⁻¹	32900 M⁻¹ s⁻¹
1C4-H4K1-IgG4 (antibody, V domains shown, humanized) VH: QGQMVQSGAEVKKPGASVKLSCKTSGFTFSSSYINWLRQAPGQSLEWIAWIFAGTGGTYYNQKFTGRAQLTVDTSASTAYMELSSLRSEDTAIYYCARHSPRATLFDFWGQGTTLTVSS VL: EIVLTQSPATLSLSPGERATLSCRASSSVNHMHWYQQKPGQAPRALIYATSNLASGIPARFSGSGSGTSFTLTISSLEPEDFAVYYCQQWSSNPYTFGGGTKLEIK	18.2 nM	0.000516 s⁻¹	28400 M⁻¹ s⁻¹
1C4-H2K4-IgG4 (antibody, V domains shown, humanized) VH: QVQMVQSGAEVKKPGASVKLSCKASGFTFSSSYINWLRQAPGQSLEWIGWIFAGTGGTYYNQKFTGRVQITRDTSASTAYMELSSLRSEDTAIYYCARHSPRATLFDFWGQGTTLTVSS VL: EIVLTQSPATLSASPGERVTMSCRASSSVNHMHWYQQRPGFSPRAWIYATSNLASGIPARFSGSGSGTSYSLTISSLEPEDFATYYCQQWSSNPYTFGGGTKLEIK	20.7 nM	0.000521 s⁻¹	25200 M⁻¹ s⁻¹
1C4-H3K4-IgG4 (antibody, V domains shown, humanized) VH: QVQMVQSGAEVKKPGASVKLSCKASGFTFSSSYINWLRQAPGQSLEWIGWIFAGTGGTYYNQKFTGRAQITRDTSASTAYMELSSLRSEDTAIYYCARHSPRATLFDFWGQGTTLTVSS VL: EIVLTQSPATLSASPGERVTMSCRASSSVNHMHWYQQRPGFSPRAWIYATSNLASGIPARFSGSGSGTSYSLTISSLEPEDFATYYCQQWSSNPYTFGGGTKLEIK	15.9 nM	0.000476 s⁻¹	30000 M⁻¹ s⁻¹
1C4-H4K4-IgG4 (antibody, V domains shown, humanized) VH: QGQMVQSGAEVKKPGASVKLSCKTSGFTFSSSYINWLRQAPGQSLEWIAWIFAGTGGTYYNQKFTGRAQLTVDTSASTAYMELSSLRSEDTAIYYCARHSPRATLFDFWGQGTTLTVSS VL: EIVLTQSPATLSASPGERVTMSCRASSSVNHMHWYQQRPGFSPRAWIYATSNLASGIPARFSGSGSGTSYSLTISSLEPEDFATYYCQQWSSNPYTFGGGTKLEIK	19.3 nM	0.00056 s⁻¹	29000 M⁻¹ s⁻¹
1C4-H3K3-IgG4 (antibody, V domains shown, humanized) VH: QVQMVQSGAEVKKPGASVKLSCKASGFTFSSSYINWLRQAPGQSLEWIGWIFAGTGGTYYNQKFTGRAQITRDTSASTAYMELSSLRSEDTAIYYCARHSPRATLFDFWGQGTTLTVSS VL: EIVLTQSPATLSLSPGERATMSCRASSSVNHMHWYQQKPGFSPRAWIYATSNLASGIPARFSGSGSGTSFTLTISSLEPEDFATYYCQQWSSNPYTFGGGTKLEIK	17.1 nM	0.000533 s⁻¹	31200 M⁻¹ s⁻¹
1C4-H3K2-IgG4 (antibody, V domains shown, humanized) VH: QVQMVQSGAEVKKPGASVKLSCKASGFTFSSSYINWLRQAPGQSLEWIGWIFAGTGGTYYNQKFTGRAQITRDTSASTAYMELSSLRSEDTAIYYCARHSPRATLFDFWGQGTTLTVSS VL: EIVLTQSPATLSLSPGERATLSCRASSSVNHMHWYQQKPGQAPRALIYATSNLASGIPARFSGSGSGTSFTLTISSLEPEDFATYYCQQWSSNPYTFGGGTKLEIK	16.3 nM	0.000453 s⁻¹	27700 M⁻¹ s⁻¹
1C4-H4K2-IgG4 (antibody, V domains shown, humanized) VH: QGQMVQSGAEVKKPGASVKLSCKTSGFTFSSSYINWLRQAPGQSLEWIAWIFAGTGGTYYNQKFTGRAQLTVDTSASTAYMELSSLRSEDTAIYYCARHSPRATLFDFWGQGTTLTVSS VL: EIVLTQSPATLSLSPGERATLSCRASSSVNHMHWYQQKPGQAPRALIYATSNLASGIPARFSGSGSGTSFTLTISSLEPEDFATYYCQQWSSNPYTFGGGTKLEIK	16.6 nM	0.00049 s⁻¹	29600 M⁻¹ s⁻¹
